# Laboratory results: patent US9481870B2, “Nucleic acid encoding a polypeptide having aminotransferase activity, vectors and host cells comprising the nucleic acid” (KANEKA CORPORATION, priority 2010, dated 2016)
# Assay: Optimum pH of transamination activity
# Type: biochemical
# Experimental: The optimum pH for transamination is determined by the above activity assay A using combinations of the following buffers and pHs. […] When activity levels are different depending on buffer types, the activity level higher than the other is employed even if the pHs are the same. • pH4.0, 4.5, 5.0, 5.5: 0.1 M sodium acetate buffer • pH6.0, 6.5, 7.0, 7.5, 8.0: 0.1 M potassium phosphate buffer • pH7.5, 8.0, 8.5, 9.0: 0.1M Tris-hydrochloric acid buffer (Optimum Temperature)
# The transamination activity of purified TPM was examined under the following activity assay conditions. Specifically, purified TPM was added to a substrate solution with the composition given below to a total amount of 1 mL. After 5 minutes of reaction at 30° C., 0.05 mL of 6N hydrochloric acid was added to stop the reaction. HPLC analysis was conducted under the following conditions.
# Transamination activity was determined in a manner similar to the above at pHs ranging from 4.0 to 9.0 and then the optimum pH of TPM was examined.
# The following buffers were used according to pH for determination.
# [Buffer] • pH4.0, 4.5, 5.0, or 5.5: 0.1 M sodium acetate buffer • pH6.0, 6.5, 7.0, 7.5, or 8.0: 0.1 M potassium phosphate buffer • pH7.5, 8.0, 8.5, or 9.0: 0.1 M tris-hydrochloric acid buffer • (3) Optimum Temperature: […]
molecule,measurement,setting,value
"TPM: purified aminotransferase polypeptide from Pseudomonas sp. MV37, about 50,000 molecular weight, amino acid sequence SEQ ID NO: 1 (protein, listed as Pseudomonas sp.) MNHLEKMLELDRNHLIHPHLPKSEFSRTIFARGKGCKLWDTEGREYLDATGGLWLAQIGHGREEIAEVAARQMKQLEYFTCFWDFSNERAIELAEKLARLAPGDLEMSFFTSGGSEGDDAAIKTARYYHSQRGEPKRTWILSRNNAYHGLAYGGGTATGFPELRDGMGPGLPHVAYLTQPNAYRHYYFDGQNPTDFCVSELEKMIASIGAENIAAMIAEPIMGVGGMVPPPVDYWPRMSQVLKKNGILLIFDEVVSAFGRSGHWFAAEKYGVIPDIMVTAKGISSGYIPLGAVIMSRDVADTVREGHGYPLGYTYSGHPVACAVALENLRILEDEDLINRSNHMGTYIAEQLTALRDNPCVGEVRQAGMGIGIELVTDKESRQPLPDAALVIPDIIREETGVIVRISNATNLCMSPPLTMSREEADRAVEAVCSVLSRVKPDGKV",Relative activity,"0.1M Potassium phosphate, pH 6.0, activity at pH7 = 100",86
same,Relative activity,"0.1M Potassium phosphate, pH 6.5, activity at pH7 = 100",94
same,Relative activity,"0.1M Potassium phosphate, pH 7.0, designated as 100",100
same,Relative activity,"0.1M Potassium phosphate, pH 7.5, activity at pH7 = 100",88
same,Relative activity,"0.1M Potassium phosphate, pH 8.0, activity at pH7 = 100",67
same,Relative activity,"0.1M Sodium acetate, pH 4.0, activity at pH7 = 100",7
same,Relative activity,"0.1M Sodium acetate, pH 4.5, activity at pH7 = 100",25
same,Relative activity,"0.1M Sodium acetate, pH 5.0, activity at pH7 = 100",57
same,Relative activity,"0.1M Sodium acetate, pH 5.5, activity at pH7 = 100",71
same,Relative activity,"0.1M Tris-hydrochloric acid, pH 7.5, activity at pH7 = 100",96
same,Relative activity,"0.1M Tris-hydrochloric acid, pH 8.0, activity at pH7 = 100",95
same,Relative activity,"0.1M Tris-hydrochloric acid, pH 8.5, activity at pH7 = 100",85
same,Relative activity,"0.1M Tris-hydrochloric acid, pH 9.0, activity at pH7 = 100",67
